We go through two molecules from PMC6274923, “Pinpointed Stimulation of EphA2 Receptors via DNA-Templated Oligovalence” (International Journal of Molecular Sciences, 2018).

In this test the target is T1, EphA2 receptor (Homo sapiens, UniProt P29317).
T1 construct: PC-3 prostate cancer cells that overexpress the EphA2 receptor; endogenous in cells; host or cells: PC-3 cells (ATCC CRL-1435)
As to the kind of experiment: EphA2 phosphorylation assay (sandwich ELISA, DuoSet IC Human Phospho-EphA2 kit) in PC-3 cells. It counts as cell-based.

Where [1] appears, read: serum-starved PC-3 cells, 30 min at 37 °C, duplicates, sandwich ELISA, approximate EC50 from least-square fit (Equation 1), mean ± standard deviation, concentration of whole entity (DNA construct or peptide).

T1 sequence (P29317 24-976): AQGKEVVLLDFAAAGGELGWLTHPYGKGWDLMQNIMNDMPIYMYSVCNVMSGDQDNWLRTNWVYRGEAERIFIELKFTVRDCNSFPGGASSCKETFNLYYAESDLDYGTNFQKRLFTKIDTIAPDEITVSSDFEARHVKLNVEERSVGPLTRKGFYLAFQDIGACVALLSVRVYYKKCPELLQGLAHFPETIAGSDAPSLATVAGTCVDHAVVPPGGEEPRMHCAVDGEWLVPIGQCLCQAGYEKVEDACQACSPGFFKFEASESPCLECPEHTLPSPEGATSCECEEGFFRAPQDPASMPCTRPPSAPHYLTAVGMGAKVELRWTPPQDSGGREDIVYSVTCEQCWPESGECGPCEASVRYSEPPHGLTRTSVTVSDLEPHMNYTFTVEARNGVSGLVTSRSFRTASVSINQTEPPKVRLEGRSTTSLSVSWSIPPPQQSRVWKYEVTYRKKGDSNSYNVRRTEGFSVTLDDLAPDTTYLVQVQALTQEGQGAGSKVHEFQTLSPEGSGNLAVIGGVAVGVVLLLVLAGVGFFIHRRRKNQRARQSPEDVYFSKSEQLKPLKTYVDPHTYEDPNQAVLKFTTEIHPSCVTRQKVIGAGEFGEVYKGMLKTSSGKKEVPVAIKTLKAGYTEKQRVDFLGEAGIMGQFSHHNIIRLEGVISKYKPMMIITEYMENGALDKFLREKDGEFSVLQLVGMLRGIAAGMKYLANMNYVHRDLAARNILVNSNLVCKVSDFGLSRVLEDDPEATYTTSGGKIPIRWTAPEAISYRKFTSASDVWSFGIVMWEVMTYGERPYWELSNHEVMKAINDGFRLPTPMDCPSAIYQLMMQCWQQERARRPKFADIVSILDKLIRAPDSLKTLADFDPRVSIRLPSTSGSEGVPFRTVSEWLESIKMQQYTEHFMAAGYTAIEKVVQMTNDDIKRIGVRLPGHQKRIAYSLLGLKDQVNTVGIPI
Method: Serum-starved PC-3 cells were treated with different SWL-DNA trimer constructs (9 µM), monomeric SWL peptide (150 µM) and the natural ligand ephrin-A1 (1.5 µg/mL) in duplicates for 30 min at 37 °C. Cells were washed with 1× PBS twice and further treated according to the manufacturer’s instructions.
Serum-starved PC-3 cells were treated with different concentrations of constructs in duplicates for 30 min at 37 °C. Cells were washed with 1× PBS twice and further treated according to the manufacturer’s instructions. […] Standard deviation is presented as error bars. The x-axis indicates concentrations of the constructs in terms of DNA for 0xSWL-DNA trimer—3xSWL-DNA trimer and the concentration of the peptide for SWL.
Levels of EphA2 phosphorylation were determined using the DuoSet IC Human Phospho-EphA2 kit (R&D systems, Minneapolis, MN, USA) which is based on a sandwich ELISA. Briefly, 2 × 10^5 PC-3 cells were seeded three days before the assay for the comparison of ligands. For the concentration series used to determine EC50 values, 1 × 10^6 PC-3 cells were seeded into 12-well culture plates one day before the assay. On the day of the experiment, cells were serum-starved for 4 h and treated with either 1xSWL-DNA trimer, 2xSWL-DNA trimer, 3xSWL-DNA trimer, natural ligand ephrin-A1, SWL peptide, DNA trimer only or 1× PBS/10 mM MgCl2 as negative control for 30 min at 37 °C. Cells were lysed using 250 µL/well lysis buffer (according to kit) and assayed as indicated by manufacturer’s instructions. Manifold washing was conducted after every step and the whole procedure was executed at room temperature. In brief, 96-well ELISA plates carrying specific human EphA2 capture antibodies were incubated with cell lysates of afore treated PC-3 cells. This was followed by the addition of anti-phospho-tyrosine-HRP antibodies which ultimately fulfil a colorimetric reaction by conversion of 3,3′,5,5′-Tetramethylbenzidine substrate solution for 25 min (ligands in Figure 4a) or 8 min (ephrin-A1 in Figure A7). This reaction was stopped by adding 2 N H2SO4 and absorbance was measured at 450 nm and at 520 nm (infinite M1000, Tecan, Switzerland); the latter was subtracted as reference value. To normalize values from concentration series, controls (only 1× PBS/10 mM MgCl2) were subtracted, too. Data was analyzed by fitting to the equation: (1) A=Amin+(Amax−Amin)/1+(x/EC50)^−b where A is the observed absorbance, Amin and Amax are minimal and maximal absorbance respectively, and b is the Hill coefficient.

A word on the EC50: it is the concentration needed to bring the measured effect to its halfway point. Higher therefore signals a need for much substance. `CC(C)C[C@H](NC(=O)[C@H](Cc1c[nH]c2ccccc12)NC(=O)[C@@H](N)CO)C(=O)N[C@@H](C)C(=O)N[C@@H](Cc1ccc(O)cc1)C(=O)N1CCC[C@H]1C(=O)NCC(=O)N[C@@H](C)C(=O)N[C@H](C(=O)N[C@@H](CO)C(=O)N[C@@H](Cc1ccc(O)cc1)C(=O)N[C@@H](CCCNC(=N)N)C(=O)NCC(=O)NCC(=O)N[C@@H](CCCCN=[N+]=[N-])C(=O)O)C(C)C` [SWL, reference compound]: the midpoint of the response under setting [1], the EC50, lay at 154000 ± 115000 nM.

B1: ephrin-A1: natural EphA2 protein ligand, molecular weight approx. 21 kDa (protein)
chain: DRHTVFWNSSNPKFRNEDYTIHVQLNDYVDIICPHYEDHSVADAAMEQYILYLVEHEEYQLCQPQSKDQVRWQCNRPSAKHGPEKLSEKFQRFTPFTLGKEFKEGHSYYYISKPIHQHEDRCLRLKVTVSGKITHSPQAHDNPQEKRLAADDPEVRVLHSIGHS
modifications: Limits are the mature chain without signal peptide and GPI propeptide, by convention; the approx. 21 kDa MW fits a non-Fc soluble form; Possible N-glycan at Asn
As for B1, the “EC50 for EphA2 receptor phosphorylation” value (ephrin-A1 dose-response (Figure A7), PC-3 cells, 30 min at 37 °C, substrate reaction 8 min) is 0.0552 ± 0.0103 µg/mL. This molecule came in with an EC50 (ephrin-A1 dose-response (Figure A7), PC-3 cells, conversion of the µg/mL value) of 2.65 nM and an EC50 under setting [1] of 2.7 ± 0.5 nM.
